Positions count from the first letter of the chain named. Names and notes keep the numbering of the source. Values joined by “and” are separate entries in the source; they are usually repeats but may differ in a detail not shown here. Identical values can stand only once.
Legend:
[1] = molecular target: OmCI H164A (Ornithodoros moubata) (UniProt Q5YD59); assay: SPR; single-cycle kinetics, Biacore 8K; OmCI amine coupled to a CM5 chip (~50 RU); C5 (CompTech) as analyte, 9-point 3-fold titration from 500 nM in HBS-EP, 40 ul/min, contact 230 s, dissociation 900 s; single-site binding model
[2] = molecular target: OmCI E141A (Ornithodoros moubata) (UniProt Q5YD59); assay: as above
[3] = molecular target: OmCI F36W (Ornithodoros moubata) (UniProt Q5YD59); assay: as above
[4] = molecular target: OmCI E141A/R47A/H164A/L140G (Ornithodoros moubata) (UniProt Q5YD59); assay: as above
[5] = molecular target: OmCI H117A (Ornithodoros moubata) (UniProt Q5YD59); assay: as above
[6] = molecular target: OmCI E141A/L140G (Ornithodoros moubata) (UniProt Q5YD59); assay: as above
[7] = molecular target: OmCI M134G (Ornithodoros moubata) (UniProt Q5YD59); assay: as above
[8] = molecular target: OmCI E141A/R47A/L140G (Ornithodoros moubata) (UniProt Q5YD59); assay: as above
[9] = molecular target: OmCI R47A (Ornithodoros moubata) (UniProt Q5YD59); assay: as above
[10] = molecular target: OmCI D167A (Ornithodoros moubata) (UniProt Q5YD59); assay: as above
[11] = molecular target: OmCI E141A/R47A (Ornithodoros moubata) (UniProt Q5YD59); assay: as above
[12] = molecular target: OmCI L140G (Ornithodoros moubata) (UniProt Q5YD59); assay: as above
[13] = molecular target: OmCI E141A/H164A (Ornithodoros moubata) (UniProt Q5YD59); assay: as above
[14] = molecular target: OmCI E141A (Ornithodoros moubata) (UniProt Q5YD59); assay: SPR; multicycle kinetics, Biacore 8K; OmCI biotinylated on the N-terminal AVI tag and captured on an SA streptavidin chip (20-100 RU); C5 as analyte, 7-point 3-fold titration from 250 nM in HBS-EP, 30 ul/min, contact 240 s, dissociation 3600 s; regeneration with 0.1 M citric acid pH 2.0; single-site binding model
[15] = molecular target: Wildtype OmCI (Ornithodoros moubata) (UniProt Q5YD59); assay: as above
[16] = molecular target: OmCI E141A/R47A (Ornithodoros moubata) (UniProt Q5YD59); assay: as above
[17] = molecular target: OmCI E141A/H164A (Ornithodoros moubata) (UniProt Q5YD59); assay: as above
[18] = molecular target: Wildtype OmCI (Ornithodoros moubata) (UniProt Q5YD59); assay: differential scanning calorimetry; C5 (CompTech) and OmCI mixed in 1:1.25 molar ratio, at least 6 h at 4 °C, PBS; heated 10-100 °C at 1 °C/min; n = 1
[19] = molecular target: Complement component C5 from human serum (human (endogenous in human serum))
Complement component C5 = molecular target: T1, Complement component C5 (UniProt P01031 19-673; P01031 678-1676); assay: SPR; multicycle kinetics, Biacore 8K; biotinylated OmCI captured by its N-terminal AVI tag on an SA streptavidin chip; C5 as analyte, 7-point 3-fold titration from 250 nM in HBS-EP, 30 ul/min, contact 240 s, dissociation 3600 s; single-site binding model; values of the individual occasions (n=1 to n=4); settings: both partners purified
T1 construct: complement C5 beta chain; complement C5 alpha chain; Commercial C5 from CompTech; source: bought: CompTech
T1 sequence (P01031 19-673, chain 1 of 2): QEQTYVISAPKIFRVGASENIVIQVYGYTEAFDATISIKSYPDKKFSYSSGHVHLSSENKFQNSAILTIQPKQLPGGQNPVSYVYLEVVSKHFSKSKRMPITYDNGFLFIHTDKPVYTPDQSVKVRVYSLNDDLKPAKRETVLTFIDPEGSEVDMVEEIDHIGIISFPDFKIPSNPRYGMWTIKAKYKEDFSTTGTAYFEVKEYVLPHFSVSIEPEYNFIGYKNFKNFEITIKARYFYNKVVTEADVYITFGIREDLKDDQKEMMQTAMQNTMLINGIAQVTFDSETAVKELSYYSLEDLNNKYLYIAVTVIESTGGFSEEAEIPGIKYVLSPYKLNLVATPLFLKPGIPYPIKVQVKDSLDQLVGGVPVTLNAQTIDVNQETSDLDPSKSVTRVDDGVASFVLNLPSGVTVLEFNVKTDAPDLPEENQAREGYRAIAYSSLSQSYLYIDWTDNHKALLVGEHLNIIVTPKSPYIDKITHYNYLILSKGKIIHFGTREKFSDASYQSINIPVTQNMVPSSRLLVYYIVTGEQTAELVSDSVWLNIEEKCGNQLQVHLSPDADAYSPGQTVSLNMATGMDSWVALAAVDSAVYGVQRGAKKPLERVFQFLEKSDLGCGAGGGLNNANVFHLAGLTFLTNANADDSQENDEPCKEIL
T1 sequence (P01031 678-1676, chain 2 of 2): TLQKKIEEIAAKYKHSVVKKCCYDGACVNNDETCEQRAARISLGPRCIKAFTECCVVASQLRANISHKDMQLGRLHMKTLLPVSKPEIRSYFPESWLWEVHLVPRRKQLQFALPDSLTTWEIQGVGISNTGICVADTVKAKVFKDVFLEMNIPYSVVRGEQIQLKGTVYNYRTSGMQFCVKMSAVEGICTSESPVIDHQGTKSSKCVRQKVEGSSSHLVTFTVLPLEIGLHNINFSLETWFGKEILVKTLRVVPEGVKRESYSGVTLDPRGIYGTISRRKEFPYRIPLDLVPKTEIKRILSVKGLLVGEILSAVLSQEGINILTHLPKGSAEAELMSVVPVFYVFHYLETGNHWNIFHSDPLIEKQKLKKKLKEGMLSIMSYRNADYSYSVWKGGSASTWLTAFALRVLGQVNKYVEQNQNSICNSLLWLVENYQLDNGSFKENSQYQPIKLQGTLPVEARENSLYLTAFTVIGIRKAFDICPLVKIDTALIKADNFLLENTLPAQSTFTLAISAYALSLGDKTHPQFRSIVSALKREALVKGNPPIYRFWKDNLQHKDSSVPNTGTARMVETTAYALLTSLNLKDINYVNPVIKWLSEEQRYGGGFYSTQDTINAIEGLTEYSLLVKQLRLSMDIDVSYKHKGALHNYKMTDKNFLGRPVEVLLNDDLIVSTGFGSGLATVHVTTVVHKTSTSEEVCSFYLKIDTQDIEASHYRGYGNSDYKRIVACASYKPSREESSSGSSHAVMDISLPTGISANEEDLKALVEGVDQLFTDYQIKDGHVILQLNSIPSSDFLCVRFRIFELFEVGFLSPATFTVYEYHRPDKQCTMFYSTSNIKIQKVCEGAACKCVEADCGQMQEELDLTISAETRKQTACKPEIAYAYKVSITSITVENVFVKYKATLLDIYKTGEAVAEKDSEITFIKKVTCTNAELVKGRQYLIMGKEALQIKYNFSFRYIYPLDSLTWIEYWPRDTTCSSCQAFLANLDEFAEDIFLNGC

## Complement component C5 (CompTech) (natural protein)
[1]
  approximate fold change in koff relative to WT OmCI: 3.5 fold
[2]
  approximate fold change in koff relative to WT OmCI: 29.1 fold
[3]
  approximate fold change in koff relative to WT OmCI: 2.6 fold
[4]
  approximate fold change in koff relative to WT OmCI: 5500 fold
[5]
  approximate fold change in koff relative to WT OmCI: 1.1 fold
[6]
  approximate fold change in koff relative to WT OmCI: 31.3 fold
[7]
  approximate fold change in koff relative to WT OmCI: 229 fold
[8]
  approximate fold change in koff relative to WT OmCI: 1270 fold
[9]
  approximate fold change in koff relative to WT OmCI: 4.1 fold
[10]
  approximate fold change in koff relative to WT OmCI: 2.4 fold
[11]
  approximate fold change in koff relative to WT OmCI: 973 fold
[12]
  approximate fold change in koff relative to WT OmCI: 1 fold
[13]
  approximate fold change in koff relative to WT OmCI: 197 fold
[14]
  Kd: 0.709 nM
  koff: 0.000304 s⁻¹
  kon: 481000 M⁻¹ s⁻¹
[15]
  Kd: < 0.1 nM
  koff: < 1e-05 s⁻¹
  kon: 588000 M⁻¹ s⁻¹
  stoichiometry N: < 1
[16]
  Kd: 13.1 nM
  koff: 0.0318 s⁻¹
  kon: 3.01e+06 M⁻¹ s⁻¹
[17]
  Kd: 4.09 nM
  koff: 0.00406 s⁻¹
  kon: 1.13e+06 M⁻¹ s⁻¹
[18]
  ΔTm of the main C5 unfolding peak on complexing: 8.6 °C

## Complement component C5 from human serum (natural protein)
[15]
  Kd: < 0.1 nM

## OmCI E141A (from UniProt Q5YD59 19-168) (natural protein)
[19]
  pIC50, alternative pathway (AP) complement activation ELISA (inhibition of MAC formation), OmCI titrated from 5 uM in human serum: < 8.9 −log M

## OmCI E141A/H164A (from UniProt Q5YD59 19-168) (natural protein)
[19]
  pIC50, alternative pathway (AP) complement activation ELISA (inhibition of MAC formation), OmCI titrated from 5 uM in human serum: 8.5 −log M

## OmCI E141A/R47A (from UniProt Q5YD59 19-168) (natural protein)
[19]
  pIC50, alternative pathway (AP) complement activation ELISA (inhibition of MAC formation), OmCI titrated from 5 uM in human serum: 8 −log M

## OmCI H164A (from UniProt Q5YD59 19-168) (natural protein)
[19]
  pIC50, alternative pathway (AP) complement activation ELISA (inhibition of MAC formation), OmCI titrated from 5 uM in human serum: < 8.8 −log M

## OmCI R47A (from UniProt Q5YD59 19-168) (natural protein)
[19]
  pIC50, alternative pathway (AP) complement activation ELISA (inhibition of MAC formation), OmCI titrated from 5 uM in human serum: < 9 −log M

## Wildtype OmCI (from UniProt Q5YD59 19-168) (natural protein)
[19]
  pIC50, alternative pathway (AP) complement activation ELISA (inhibition of MAC formation), OmCI titrated from 5 uM in human serum: < 9 −log M

B1: Wild-type OmCI with N-terminal 10xHis, TEV site and AVI tag (natural protein)
chain: DSESDCTGSEPVDAFQAFSEGKEAYVLVRSTDPKARDCLKGEPAGEKQDNTLPVMMTFKNGTDWASTDWTFTLDGAKVTATLGNLTQNREVVYDSQSHHCHVDKVEKEVPDYEMWMLDAGGLEVEVECCRQKLEELASGRNQMYPHLKDC
modifications: biotin on the N-terminal AVI tag (Bir-A)
notes: OmCI of Ornithodoros moubata, UniProt Q5YD59, without its signal peptide; No TEV cleavage is described; also called wt OmCI; OmCI WT; source: ExpiHEK 293, transfected, purified from supernatant (nickel-Sepharose Excel); not shown: AVI tag, N-terminal, kept
Complement component C5
  Kd: < 0.1 nM
  koff: < 1e-05 s⁻¹
  kon: 384000 M⁻¹ s⁻¹ and 400000 M⁻¹ s⁻¹ and 1.14e+06 M⁻¹ s⁻¹ and 432000 M⁻¹ s⁻¹

B2: OmCI E141A/H164A with N-terminal 10xHis, TEV site and AVI tag (natural protein)
chain: B1 chain with E123A, H146A
modifications: biotin on the N-terminal AVI tag (Bir-A)
notes: OmCI of Ornithodoros moubata, UniProt Q5YD59, without its signal peptide; source: ExpiHEK 293, transfected, purified from supernatant (nickel-Sepharose Excel); not shown: AVI tag, N-terminal, kept
Complement component C5
  Kd: 5.13 nM and 5.35 nM and 1.8 nM
  koff: 0.00438 s⁻¹ and 0.00489 s⁻¹ and 0.00292 s⁻¹
  kon: 855000 M⁻¹ s⁻¹ and 913000 M⁻¹ s⁻¹ and 1.62e+06 M⁻¹ s⁻¹

B3: OmCI E141A with N-terminal 10xHis, TEV site and AVI tag (natural protein)
chain: B1 chain with E123A
modifications: biotin on the N-terminal AVI tag (Bir-A)
notes: OmCI of Ornithodoros moubata, UniProt Q5YD59, without its signal peptide; also called OmCI WT E141A; source: ExpiHEK 293, transfected, purified from supernatant (nickel-Sepharose Excel); not shown: AVI tag, N-terminal, kept
Complement component C5
  Kd: 0.896 nM and 0.395 nM and 0.707 nM and 0.837 nM
  koff: 0.000307 s⁻¹ and 0.000328 s⁻¹ and 0.000273 s⁻¹
  kon: 343000 M⁻¹ s⁻¹ and 830000 M⁻¹ s⁻¹ and 367000 M⁻¹ s⁻¹ and 386000 M⁻¹ s⁻¹

B4: OmCI E141A/R47A with N-terminal 10xHis, TEV site and AVI tag (natural protein)
chain: B1 chain with R29A, E123A
modifications: biotin on the N-terminal AVI tag (Bir-A)
notes: as for B2
Complement component C5
  Kd: 17.6 nM and 7.26 nM and 9.55 nM and 18 nM

— article PMC6130949, “The rational design of affinity-attenuated OmCI for the purification of complement C5” (The Journal of Biological Chemistry, 2018)
